Laboratory results published in US20210230263A1 (BIOATLA, published 2021).

Legend:
human IL-22 [1] = biological target: T1, human IL-22 (human, UniProt Q9GZX6 34-179); experiment: cell-based or functional assay
T1 sequence (looked up): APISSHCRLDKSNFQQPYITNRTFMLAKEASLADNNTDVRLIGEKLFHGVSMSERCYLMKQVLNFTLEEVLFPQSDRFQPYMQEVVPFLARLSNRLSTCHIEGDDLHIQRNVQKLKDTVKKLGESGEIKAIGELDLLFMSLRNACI

human IL-22 [2] = biological target: T1, human IL-22; experiment: affinity ELISA on hIL22, mAb concentration at 50% max signal
mouse IL-22 = biological target: T2, mouse IL-22 (mouse, UniProt Q9JJY9 34-179); experiment: ELISA on coated antigen (1 ug/ml), anti-hIgG-HRP, OD450;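 note: specificity check of antibodies applied at 100 ng/ml to wells bearing human or mouse IL-22, related cytokines or an unrelated control antigen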
T2 construct: also called mIL-22; mIL22
T2 sequence (looked up): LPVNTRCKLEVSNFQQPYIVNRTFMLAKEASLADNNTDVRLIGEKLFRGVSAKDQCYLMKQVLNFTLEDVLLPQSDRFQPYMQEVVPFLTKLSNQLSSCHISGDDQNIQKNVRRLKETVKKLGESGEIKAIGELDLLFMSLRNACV
Description: (§1) Plates were coated with 100 μl antigens at a concentration of 1 μg/ml. The plates were exposed to the antibodies at a concentration of 100 ng/ml. The bound antibodies were detected with anti-hIgG-HRP by the ELISA assay.

human IL19 = biological target: T3, human IL19 (human, UniProt Q9UHD0 25-177); experiment: as above
T3 sequence (looked up): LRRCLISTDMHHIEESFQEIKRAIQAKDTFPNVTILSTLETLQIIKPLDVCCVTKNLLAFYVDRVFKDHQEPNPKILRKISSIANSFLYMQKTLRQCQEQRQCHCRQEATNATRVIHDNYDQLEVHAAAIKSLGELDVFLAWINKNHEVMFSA
Description: as §1

human IL20 = biological target: T4, human IL20 (human, UniProt Q9NYY1 25-176); experiment: as above
T4 sequence (looked up): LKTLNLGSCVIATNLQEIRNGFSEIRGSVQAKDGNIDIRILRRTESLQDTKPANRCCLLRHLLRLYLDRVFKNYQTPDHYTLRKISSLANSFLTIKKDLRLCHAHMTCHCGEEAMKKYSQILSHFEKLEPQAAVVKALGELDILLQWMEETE
Description: as §1

human IL24 = biological target: T5, human IL24 (human, UniProt Q13007 52-206, limits assumed); experiment: as above
T5 sequence (looked up): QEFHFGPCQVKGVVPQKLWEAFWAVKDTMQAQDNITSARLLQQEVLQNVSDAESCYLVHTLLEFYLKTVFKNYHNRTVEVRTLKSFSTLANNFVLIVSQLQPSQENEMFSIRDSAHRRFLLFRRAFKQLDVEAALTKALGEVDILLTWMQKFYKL
Description: as §1

human IL26 = biological target: T6, human IL26 (human, UniProt Q9NPH9 22-171, limits assumed); experiment: as above
T6 sequence (looked up): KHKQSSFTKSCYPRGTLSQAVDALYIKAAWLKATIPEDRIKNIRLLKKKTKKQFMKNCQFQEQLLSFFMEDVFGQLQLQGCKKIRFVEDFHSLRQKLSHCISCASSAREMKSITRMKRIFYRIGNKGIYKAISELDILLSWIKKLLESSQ
Description: as §1

INF-γ = biological target: T7, INF-γ (Homo sapiens (Human), UniProt P01579 24-161); experiment: as above
T7 sequence: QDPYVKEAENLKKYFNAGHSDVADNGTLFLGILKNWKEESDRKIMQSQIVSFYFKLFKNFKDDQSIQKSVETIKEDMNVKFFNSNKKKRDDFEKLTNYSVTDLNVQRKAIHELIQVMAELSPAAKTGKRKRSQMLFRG
Description: as §1

INF-λ1 = INF-λ1 (Homo sapiens (Human), UniProt Q8IU54 20-200); experiment: as above
Sequence of INF-λ1 (Q8IU54 20-200 limits assumed): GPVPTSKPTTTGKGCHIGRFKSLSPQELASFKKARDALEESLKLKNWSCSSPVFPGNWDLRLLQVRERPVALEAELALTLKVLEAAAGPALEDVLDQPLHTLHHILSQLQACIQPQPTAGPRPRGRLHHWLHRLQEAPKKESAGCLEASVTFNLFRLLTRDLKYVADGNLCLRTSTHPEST
Description: as §1

B1: hum10 (antibody, V domains shown)
VH: QVQLVQSGAEVKKPGASVKVSCKASGYIFTSYWIHWIRQPPGKGLEWIGRIYPGTGNTYYNEKFKGRVTISADKSISTAYLQWSSLKASDTAMYYCARSYDSSCAYWGQGTLVTVSS
VL: AIQLTQSPSSLSASVGDRVTITCSASSSVSYMHWYLQKPGQSPQLLIYETSKLASGVPSRFSGSGSGTDFTFTISSLEAEDAATYYCQQWSSNPYITFGQGTKVEIKR
notes: Humanized monoclonal antibody derived from murine 3C3; also called parent antibody hum10; humanized 3C3
STAT3 Phosphorylation; hIL22 % inhibition mAb [0.73 nM] (human IL-22 [1]): 7% | EC50 (human IL-22 [2]): 2.22 nM | binding result (mouse IL-22): no binding (tested: 100 ng/ml) | binding result (human IL19): no binding (tested: 100 ng/ml) | binding result (human IL20): no binding (tested: 100 ng/ml) | binding result (human IL24): no binding (tested: 100 ng/ml) | binding result (human IL26): no binding (tested: 100 ng/ml) | binding result (INF-γ): no binding (tested: 100 ng/ml) | binding result (INF-λ1): no binding (tested: 100 ng/ml)
